Assay results published in patent US20150344570A1 (published 2015).

The binders below were run against T1, FcγRIa (human, UniProt P12314 16-292) (assay: SPR (Biacore); Ho Ab vs HoCon Ab GpH7-B3/GpL16-k0).
T1 construct: extracellular domain; Soluble extracellular domain expressed in FreeStyle293 cells, used as analyte in Biacore; also called FcgRI; 1a; not shown: His tag attached to the C terminus
How it was run: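 Interaction measured at 25° C with HBS-EP+ as running buffer. Each antibody is held on an antigen-peptide surface and exposed to FcγR solution; surfaces are reused after a 10 mM glycine-HCl, pH 1.5 wash.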

T1 sequence (P12314 16-292): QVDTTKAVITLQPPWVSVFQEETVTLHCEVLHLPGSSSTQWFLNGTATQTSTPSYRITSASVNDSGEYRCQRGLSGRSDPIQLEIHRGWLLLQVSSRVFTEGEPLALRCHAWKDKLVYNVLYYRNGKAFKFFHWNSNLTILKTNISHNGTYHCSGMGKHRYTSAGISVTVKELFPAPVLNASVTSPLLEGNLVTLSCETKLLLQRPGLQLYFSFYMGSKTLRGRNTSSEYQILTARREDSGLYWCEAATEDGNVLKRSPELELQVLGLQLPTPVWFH

| Ho/Con_1a | Binder |
| --- | --- |
| 112 relative binding, control = 100 | GpH7-B3 variant S324_14T/GpL16-k0 (antibody, human IgG1, kappa, also called Ho Ab S324_14T) heavy: not shown light: DIVMTQSPLSLPVTPGEPASISCQASESLVHSNRNTYLHWYLQKPGQSPQLLIYKVSNRFSGVPDRFSGSGSGTDFTLKISRVEAEDVGVYYCSQNTHVPPTFGQGTKVEIERTVAAPSVFIFPPSDEQLKSGTASVVCLLNNFYPREAKVQWKVDNALQSGNSQESVTEQDSKDSTYSLSSTLTLSKADYEKHKVYACEVTHQGLSSPVTKSFNRGEC |
| 112 relative binding, control = 100 | GpH7-B3 variant S324_15Y/GpL16-k0 (antibody, human IgG1, kappa, also called Ho Ab S324_15Y) heavy: not shown light: DIVMTQSPLSLPVTPGEPASISCQASESLVHSNRNTYLHWYLQKPGQSPQLLIYKVSNRFSGVPDRFSGSGSGTDFTLKISRVEAEDVGVYYCSQNTHVPPTFGQGTKVEIERTVAAPSVFIFPPSDEQLKSGTASVVCLLNNFYPREAKVQWKVDNALQSGNSQESVTEQDSKDSTYSLSSTLTLSKADYEKHKVYACEVTHQGLSSPVTKSFNRGEC |
| 111 relative binding, control = 100 | GpH7-B3 variant S324_16H/GpL16-k0 (antibody, human IgG1, kappa, also called Ho Ab S324_16H) heavy: not shown light: DIVMTQSPLSLPVTPGEPASISCQASESLVHSNRNTYLHWYLQKPGQSPQLLIYKVSNRFSGVPDRFSGSGSGTDFTLKISRVEAEDVGVYYCSQNTHVPPTFGQGTKVEIERTVAAPSVFIFPPSDEQLKSGTASVVCLLNNFYPREAKVQWKVDNALQSGNSQESVTEQDSKDSTYSLSSTLTLSKADYEKHKVYACEVTHQGLSSPVTKSFNRGEC |
| 111 relative binding, control = 100 | GpH7-B3 variant S324_18N/GpL16-k0 (antibody, human IgG1, kappa, also called Ho Ab S324_18N) heavy: not shown light: DIVMTQSPLSLPVTPGEPASISCQASESLVHSNRNTYLHWYLQKPGQSPQLLIYKVSNRFSGVPDRFSGSGSGTDFTLKISRVEAEDVGVYYCSQNTHVPPTFGQGTKVEIERTVAAPSVFIFPPSDEQLKSGTASVVCLLNNFYPREAKVQWKVDNALQSGNSQESVTEQDSKDSTYSLSSTLTLSKADYEKHKVYACEVTHQGLSSPVTKSFNRGEC |
| 111 relative binding, control = 100 | GpH7-B3 variant S324_19Q/GpL16-k0 (antibody, human IgG1, kappa, also called Ho Ab S324_19Q) heavy: not shown light: DIVMTQSPLSLPVTPGEPASISCQASESLVHSNRNTYLHWYLQKPGQSPQLLIYKVSNRFSGVPDRFSGSGSGTDFTLKISRVEAEDVGVYYCSQNTHVPPTFGQGTKVEIERTVAAPSVFIFPPSDEQLKSGTASVVCLLNNFYPREAKVQWKVDNALQSGNSQESVTEQDSKDSTYSLSSTLTLSKADYEKHKVYACEVTHQGLSSPVTKSFNRGEC |
| 112 relative binding, control = 100 | GpH7-B3 variant S324_20W/GpL16-k0 (antibody, human IgG1, kappa, also called Ho Ab S324_20W) heavy: not shown light: DIVMTQSPLSLPVTPGEPASISCQASESLVHSNRNTYLHWYLQKPGQSPQLLIYKVSNRFSGVPDRFSGSGSGTDFTLKISRVEAEDVGVYYCSQNTHVPPTFGQGTKVEIERTVAAPSVFIFPPSDEQLKSGTASVVCLLNNFYPREAKVQWKVDNALQSGNSQESVTEQDSKDSTYSLSSTLTLSKADYEKHKVYACEVTHQGLSSPVTKSFNRGEC |
| 102 relative binding, control = 100 | GpH7-B3 variant S337_01G/GpL16-k0 (antibody, human IgG1, kappa, also called Ho Ab S337_01G) heavy: not shown light: DIVMTQSPLSLPVTPGEPASISCQASESLVHSNRNTYLHWYLQKPGQSPQLLIYKVSNRFSGVPDRFSGSGSGTDFTLKISRVEAEDVGVYYCSQNTHVPPTFGQGTKVEIERTVAAPSVFIFPPSDEQLKSGTASVVCLLNNFYPREAKVQWKVDNALQSGNSQESVTEQDSKDSTYSLSSTLTLSKADYEKHKVYACEVTHQGLSSPVTKSFNRGEC |
| 103 relative binding, control = 100 | GpH7-B3 variant S337_02A/GpL16-k0 (antibody, human IgG1, kappa, also called Ho Ab S337_02A) heavy: not shown light: DIVMTQSPLSLPVTPGEPASISCQASESLVHSNRNTYLHWYLQKPGQSPQLLIYKVSNRFSGVPDRFSGSGSGTDFTLKISRVEAEDVGVYYCSQNTHVPPTFGQGTKVEIERTVAAPSVFIFPPSDEQLKSGTASVVCLLNNFYPREAKVQWKVDNALQSGNSQESVTEQDSKDSTYSLSSTLTLSKADYEKHKVYACEVTHQGLSSPVTKSFNRGEC |
| 105 relative binding, control = 100 | GpH7-B3 variant S337_03V/GpL16-k0 (antibody, human IgG1, kappa, also called Ho Ab S337_03V) heavy: not shown light: DIVMTQSPLSLPVTPGEPASISCQASESLVHSNRNTYLHWYLQKPGQSPQLLIYKVSNRFSGVPDRFSGSGSGTDFTLKISRVEAEDVGVYYCSQNTHVPPTFGQGTKVEIERTVAAPSVFIFPPSDEQLKSGTASVVCLLNNFYPREAKVQWKVDNALQSGNSQESVTEQDSKDSTYSLSSTLTLSKADYEKHKVYACEVTHQGLSSPVTKSFNRGEC |
| 105 relative binding, control = 100 | GpH7-B3 variant S337_04F/GpL16-k0 (antibody, human IgG1, kappa, also called Ho Ab S337_04F) heavy: not shown light: DIVMTQSPLSLPVTPGEPASISCQASESLVHSNRNTYLHWYLQKPGQSPQLLIYKVSNRFSGVPDRFSGSGSGTDFTLKISRVEAEDVGVYYCSQNTHVPPTFGQGTKVEIERTVAAPSVFIFPPSDEQLKSGTASVVCLLNNFYPREAKVQWKVDNALQSGNSQESVTEQDSKDSTYSLSSTLTLSKADYEKHKVYACEVTHQGLSSPVTKSFNRGEC |
| 102 relative binding, control = 100 | GpH7-B3 variant S337_06M/GpL16-k0 (antibody, human IgG1, kappa, also called Ho Ab S337_06M) heavy: not shown light: DIVMTQSPLSLPVTPGEPASISCQASESLVHSNRNTYLHWYLQKPGQSPQLLIYKVSNRFSGVPDRFSGSGSGTDFTLKISRVEAEDVGVYYCSQNTHVPPTFGQGTKVEIERTVAAPSVFIFPPSDEQLKSGTASVVCLLNNFYPREAKVQWKVDNALQSGNSQESVTEQDSKDSTYSLSSTLTLSKADYEKHKVYACEVTHQGLSSPVTKSFNRGEC |
| 105 relative binding, control = 100 | GpH7-B3 variant S337_07I/GpL16-k0 (antibody, human IgG1, kappa, also called Ho Ab S337_07I) heavy: not shown light: DIVMTQSPLSLPVTPGEPASISCQASESLVHSNRNTYLHWYLQKPGQSPQLLIYKVSNRFSGVPDRFSGSGSGTDFTLKISRVEAEDVGVYYCSQNTHVPPTFGQGTKVEIERTVAAPSVFIFPPSDEQLKSGTASVVCLLNNFYPREAKVQWKVDNALQSGNSQESVTEQDSKDSTYSLSSTLTLSKADYEKHKVYACEVTHQGLSSPVTKSFNRGEC |
| 105 relative binding, control = 100 | GpH7-B3 variant S337_08L/GpL16-k0 (antibody, human IgG1, kappa, also called Ho Ab S337_08L) heavy: not shown light: DIVMTQSPLSLPVTPGEPASISCQASESLVHSNRNTYLHWYLQKPGQSPQLLIYKVSNRFSGVPDRFSGSGSGTDFTLKISRVEAEDVGVYYCSQNTHVPPTFGQGTKVEIERTVAAPSVFIFPPSDEQLKSGTASVVCLLNNFYPREAKVQWKVDNALQSGNSQESVTEQDSKDSTYSLSSTLTLSKADYEKHKVYACEVTHQGLSSPVTKSFNRGEC |
| 106 relative binding, control = 100 | GpH7-B3 variant S337_09D/GpL16-k0 (antibody, human IgG1, kappa, also called Ho Ab S337_09D) heavy: not shown light: DIVMTQSPLSLPVTPGEPASISCQASESLVHSNRNTYLHWYLQKPGQSPQLLIYKVSNRFSGVPDRFSGSGSGTDFTLKISRVEAEDVGVYYCSQNTHVPPTFGQGTKVEIERTVAAPSVFIFPPSDEQLKSGTASVVCLLNNFYPREAKVQWKVDNALQSGNSQESVTEQDSKDSTYSLSSTLTLSKADYEKHKVYACEVTHQGLSSPVTKSFNRGEC |
| 104 relative binding, control = 100 | GpH7-B3 variant S337_10E/GpL16-k0 (antibody, human IgG1, kappa, also called Ho Ab S337_10E) heavy: not shown light: DIVMTQSPLSLPVTPGEPASISCQASESLVHSNRNTYLHWYLQKPGQSPQLLIYKVSNRFSGVPDRFSGSGSGTDFTLKISRVEAEDVGVYYCSQNTHVPPTFGQGTKVEIERTVAAPSVFIFPPSDEQLKSGTASVVCLLNNFYPREAKVQWKVDNALQSGNSQESVTEQDSKDSTYSLSSTLTLSKADYEKHKVYACEVTHQGLSSPVTKSFNRGEC |
| 105 relative binding, control = 100 | GpH7-B3 variant S337_12R/GpL16-k0 (antibody, human IgG1, kappa, also called Ho Ab S337_12R) heavy: not shown light: DIVMTQSPLSLPVTPGEPASISCQASESLVHSNRNTYLHWYLQKPGQSPQLLIYKVSNRFSGVPDRFSGSGSGTDFTLKISRVEAEDVGVYYCSQNTHVPPTFGQGTKVEIERTVAAPSVFIFPPSDEQLKSGTASVVCLLNNFYPREAKVQWKVDNALQSGNSQESVTEQDSKDSTYSLSSTLTLSKADYEKHKVYACEVTHQGLSSPVTKSFNRGEC |
| 104 relative binding, control = 100 | GpH7-B3 variant S337_15Y/GpL16-k0 (antibody, human IgG1, kappa, also called Ho Ab S337_15Y) heavy: not shown light: DIVMTQSPLSLPVTPGEPASISCQASESLVHSNRNTYLHWYLQKPGQSPQLLIYKVSNRFSGVPDRFSGSGSGTDFTLKISRVEAEDVGVYYCSQNTHVPPTFGQGTKVEIERTVAAPSVFIFPPSDEQLKSGTASVVCLLNNFYPREAKVQWKVDNALQSGNSQESVTEQDSKDSTYSLSSTLTLSKADYEKHKVYACEVTHQGLSSPVTKSFNRGEC |
| 105 relative binding, control = 100 | GpH7-B3 variant S337_19Q/GpL16-k0 (antibody, human IgG1, kappa, also called Ho Ab S337_19Q) heavy: not shown light: DIVMTQSPLSLPVTPGEPASISCQASESLVHSNRNTYLHWYLQKPGQSPQLLIYKVSNRFSGVPDRFSGSGSGTDFTLKISRVEAEDVGVYYCSQNTHVPPTFGQGTKVEIERTVAAPSVFIFPPSDEQLKSGTASVVCLLNNFYPREAKVQWKVDNALQSGNSQESVTEQDSKDSTYSLSSTLTLSKADYEKHKVYACEVTHQGLSSPVTKSFNRGEC |
| 104 relative binding, control = 100 | GpH7-B3 variant S337_20W/GpL16-k0 (antibody, human IgG1, kappa, also called Ho Ab S337_20W) heavy: not shown light: DIVMTQSPLSLPVTPGEPASISCQASESLVHSNRNTYLHWYLQKPGQSPQLLIYKVSNRFSGVPDRFSGSGSGTDFTLKISRVEAEDVGVYYCSQNTHVPPTFGQGTKVEIERTVAAPSVFIFPPSDEQLKSGTASVVCLLNNFYPREAKVQWKVDNALQSGNSQESVTEQDSKDSTYSLSSTLTLSKADYEKHKVYACEVTHQGLSSPVTKSFNRGEC |
| 105 relative binding, control = 100 | GpH7-B3 variant T335_04F/GpL16-k0 (antibody, human IgG1, kappa, also called Ho Ab T335_04F) heavy: not shown light: DIVMTQSPLSLPVTPGEPASISCQASESLVHSNRNTYLHWYLQKPGQSPQLLIYKVSNRFSGVPDRFSGSGSGTDFTLKISRVEAEDVGVYYCSQNTHVPPTFGQGTKVEIERTVAAPSVFIFPPSDEQLKSGTASVVCLLNNFYPREAKVQWKVDNALQSGNSQESVTEQDSKDSTYSLSSTLTLSKADYEKHKVYACEVTHQGLSSPVTKSFNRGEC |
| 106 relative binding, control = 100 | GpH7-B3 variant T335_05P/GpL16-k0 (antibody, human IgG1, kappa, also called Ho Ab T335_05P) heavy: not shown light: DIVMTQSPLSLPVTPGEPASISCQASESLVHSNRNTYLHWYLQKPGQSPQLLIYKVSNRFSGVPDRFSGSGSGTDFTLKISRVEAEDVGVYYCSQNTHVPPTFGQGTKVEIERTVAAPSVFIFPPSDEQLKSGTASVVCLLNNFYPREAKVQWKVDNALQSGNSQESVTEQDSKDSTYSLSSTLTLSKADYEKHKVYACEVTHQGLSSPVTKSFNRGEC |
| 106 relative binding, control = 100 | GpH7-B3 variant T335_06M/GpL16-k0 (antibody, human IgG1, kappa, also called Ho Ab T335_06M) heavy: not shown light: DIVMTQSPLSLPVTPGEPASISCQASESLVHSNRNTYLHWYLQKPGQSPQLLIYKVSNRFSGVPDRFSGSGSGTDFTLKISRVEAEDVGVYYCSQNTHVPPTFGQGTKVEIERTVAAPSVFIFPPSDEQLKSGTASVVCLLNNFYPREAKVQWKVDNALQSGNSQESVTEQDSKDSTYSLSSTLTLSKADYEKHKVYACEVTHQGLSSPVTKSFNRGEC |
